From US5503978 come the findings set out here.

Bounds are passed on as bounds.

For data set [1], the system named is AMV reverse transcriptase (Avian myeloblastosis virus). The settings on record: intramolecular 3' extension to end of template; 100 nM RT.
The target in data set [2] is T1, HIV-1 reverse transcriptase (HIV-1) (UniProt P04585+P04585). Description: inhibition. Particulars: almost no inhibition at 81 nM.
Data set [3] addresses T1, HIV-1 reverse transcriptase (HIV-1). Briefly: filter. Particulars: apparent Kd of degenerate library.

In the case of “ATCCGCCTGATTAGCGATACTTACGTGAGCGTGCTGTCCCCTAAAGGTGATACGTCACTTGAGCAAAATCACCTGCAGGGG [RT26]”, the activity in data set [1] amounted to 50 % initiation.
“CCCCTGCAGGTGATTTTGCTCAAGTNNNNNNNNNNNNNNNNNNNNNNNNNNNNNNNNNNNAGTATCGCTAATCAGGCGGAT [R0 degenerate 35N ssDNA library]” showed a Ki in data set [2] of over 3000 nM. For the same sequence, the Kd in data set [3] was 1400 nM.
